Reference: publication PMC9712776

T1: GST-tagged SH3 domain of Bin1
T1 chain: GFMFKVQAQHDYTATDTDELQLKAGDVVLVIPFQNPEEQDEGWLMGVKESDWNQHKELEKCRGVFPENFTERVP


Biological target: T1, GST-tagged SH3 domain of Bin1
Test: GST pulldown
Conditions: parent: 1.0, read off a plot
[1] = chain shown with the change, 12 µg GST-Bin-SH3, 6 µg purified Dyn2

| Binder | ratio to parent [1] | ratio to parent (chain shown with the change;) |
| --- | --- | --- |
| dynamin-2 (human Dyn2 isoform 1), wild type, P50570 S848A (protein) MGNRGMEELIPLVNKLQDAFSSIGQSCHLDLPQIAVVGGQSAGKSSVLENFVGRDFLPRGSGIVTRRPLILQLIFSKTEHAEFLHCKSKKFTDFDEVRQEIEAETDRVTGTNKGISPVPINLRVYSPHVLNLTLIDLPGITKVPVGDQPPDIEYQIKDMILQFISRESSLILAVTPANMDLANSDALKLAKEVDPQGLRTIGVITKLDLMDEGTDARDVLENKLLPLRRGYIGVVNRSQKDIEGKKDIRAALAAERKFFLSHPAYRHMADRMGTPHLQKTLNQQLTNHIRESLPALRSKLQSQLLSLEKEVEEYKNFRPDDPTRKTKALLQMVQQFGVDFEKRIEGSGDQVDTLELSGGARINRIFHERFPFELVKMEFDEKDLRREISYAIKNIHGVRTGLFTPDLAFEAIVKKQVVKLKEPCLKCVDLVIQELINTVRQCTSKLSSYPRLREETERIVTTYIREREGRTKDQILLLIDIEQSYINTNHEDFIGFANAQQRSTQLNKKRAIPNQGEILVIRRGWLTINNISLMKGGSKEYWFVLTAESLSWYKDEEEKEKKYMLPLDNLKIRDVEKGFMSNKHVFAIFNTEQRNVYKDLRQIELACDSQEDVDSWKASFLRAGVYPEKDQAENEDGAQENTFSMDPQLERQVETIRNLVDSYVAIINKSIRDLMPKTIMHLMINNTKAFIHHELLAYLYSSADQSSLMEESADQAQRRDDMLRMYHALKEALNIIGDISTSTVSTPVPPPVDDTWLQSASSHSPTPQRRPVSSIHPPGRPPAVRGPTPGPPLIPVPVGAAASFSAPPIPSRPGPQSVFANSDLFPAPPQIPSRPVRIPPGIPPGVPARRPPAAPSRPTIIRPAEPSLLD | 0.86 | 1.2 |
| dynamin-2 (human Dyn2 isoform 1), wild type, P50570 S848E (protein) MGNRGMEELIPLVNKLQDAFSSIGQSCHLDLPQIAVVGGQSAGKSSVLENFVGRDFLPRGSGIVTRRPLILQLIFSKTEHAEFLHCKSKKFTDFDEVRQEIEAETDRVTGTNKGISPVPINLRVYSPHVLNLTLIDLPGITKVPVGDQPPDIEYQIKDMILQFISRESSLILAVTPANMDLANSDALKLAKEVDPQGLRTIGVITKLDLMDEGTDARDVLENKLLPLRRGYIGVVNRSQKDIEGKKDIRAALAAERKFFLSHPAYRHMADRMGTPHLQKTLNQQLTNHIRESLPALRSKLQSQLLSLEKEVEEYKNFRPDDPTRKTKALLQMVQQFGVDFEKRIEGSGDQVDTLELSGGARINRIFHERFPFELVKMEFDEKDLRREISYAIKNIHGVRTGLFTPDLAFEAIVKKQVVKLKEPCLKCVDLVIQELINTVRQCTSKLSSYPRLREETERIVTTYIREREGRTKDQILLLIDIEQSYINTNHEDFIGFANAQQRSTQLNKKRAIPNQGEILVIRRGWLTINNISLMKGGSKEYWFVLTAESLSWYKDEEEKEKKYMLPLDNLKIRDVEKGFMSNKHVFAIFNTEQRNVYKDLRQIELACDSQEDVDSWKASFLRAGVYPEKDQAENEDGAQENTFSMDPQLERQVETIRNLVDSYVAIINKSIRDLMPKTIMHLMINNTKAFIHHELLAYLYSSADQSSLMEESADQAQRRDDMLRMYHALKEALNIIGDISTSTVSTPVPPPVDDTWLQSASSHSPTPQRRPVSSIHPPGRPPAVRGPTPGPPLIPVPVGAAASFSAPPIPSRPGPQSVFANSDLFPAPPQIPSRPVRIPPGIPPGVPERRPPAAPSRPTIIRPAEPSLLD | 0.42 | 0.66 |

Other lines, results leading:

| ratio to parent [1] | ratio to parent (chain shown with the change;) | Binder |
| --- | --- | --- |
| – | 1.1 | dynamin-2 (human Dyn2 isoform 1), wild type, P50570 S856A (protein) MGNRGMEELIPLVNKLQDAFSSIGQSCHLDLPQIAVVGGQSAGKSSVLENFVGRDFLPRGSGIVTRRPLILQLIFSKTEHAEFLHCKSKKFTDFDEVRQEIEAETDRVTGTNKGISPVPINLRVYSPHVLNLTLIDLPGITKVPVGDQPPDIEYQIKDMILQFISRESSLILAVTPANMDLANSDALKLAKEVDPQGLRTIGVITKLDLMDEGTDARDVLENKLLPLRRGYIGVVNRSQKDIEGKKDIRAALAAERKFFLSHPAYRHMADRMGTPHLQKTLNQQLTNHIRESLPALRSKLQSQLLSLEKEVEEYKNFRPDDPTRKTKALLQMVQQFGVDFEKRIEGSGDQVDTLELSGGARINRIFHERFPFELVKMEFDEKDLRREISYAIKNIHGVRTGLFTPDLAFEAIVKKQVVKLKEPCLKCVDLVIQELINTVRQCTSKLSSYPRLREETERIVTTYIREREGRTKDQILLLIDIEQSYINTNHEDFIGFANAQQRSTQLNKKRAIPNQGEILVIRRGWLTINNISLMKGGSKEYWFVLTAESLSWYKDEEEKEKKYMLPLDNLKIRDVEKGFMSNKHVFAIFNTEQRNVYKDLRQIELACDSQEDVDSWKASFLRAGVYPEKDQAENEDGAQENTFSMDPQLERQVETIRNLVDSYVAIINKSIRDLMPKTIMHLMINNTKAFIHHELLAYLYSSADQSSLMEESADQAQRRDDMLRMYHALKEALNIIGDISTSTVSTPVPPPVDDTWLQSASSHSPTPQRRPVSSIHPPGRPPAVRGPTPGPPLIPVPVGAAASFSAPPIPSRPGPQSVFANSDLFPAPPQIPSRPVRIPPGIPPGVPSRRPPAAPARPTIIRPAEPSLLD |
| – | 1 | dynamin-2 (human Dyn2 isoform 1), wild type, P50570 S856E (protein) MGNRGMEELIPLVNKLQDAFSSIGQSCHLDLPQIAVVGGQSAGKSSVLENFVGRDFLPRGSGIVTRRPLILQLIFSKTEHAEFLHCKSKKFTDFDEVRQEIEAETDRVTGTNKGISPVPINLRVYSPHVLNLTLIDLPGITKVPVGDQPPDIEYQIKDMILQFISRESSLILAVTPANMDLANSDALKLAKEVDPQGLRTIGVITKLDLMDEGTDARDVLENKLLPLRRGYIGVVNRSQKDIEGKKDIRAALAAERKFFLSHPAYRHMADRMGTPHLQKTLNQQLTNHIRESLPALRSKLQSQLLSLEKEVEEYKNFRPDDPTRKTKALLQMVQQFGVDFEKRIEGSGDQVDTLELSGGARINRIFHERFPFELVKMEFDEKDLRREISYAIKNIHGVRTGLFTPDLAFEAIVKKQVVKLKEPCLKCVDLVIQELINTVRQCTSKLSSYPRLREETERIVTTYIREREGRTKDQILLLIDIEQSYINTNHEDFIGFANAQQRSTQLNKKRAIPNQGEILVIRRGWLTINNISLMKGGSKEYWFVLTAESLSWYKDEEEKEKKYMLPLDNLKIRDVEKGFMSNKHVFAIFNTEQRNVYKDLRQIELACDSQEDVDSWKASFLRAGVYPEKDQAENEDGAQENTFSMDPQLERQVETIRNLVDSYVAIINKSIRDLMPKTIMHLMINNTKAFIHHELLAYLYSSADQSSLMEESADQAQRRDDMLRMYHALKEALNIIGDISTSTVSTPVPPPVDDTWLQSASSHSPTPQRRPVSSIHPPGRPPAVRGPTPGPPLIPVPVGAAASFSAPPIPSRPGPQSVFANSDLFPAPPQIPSRPVRIPPGIPPGVPSRRPPAAPERPTIIRPAEPSLLD |
